This is an account of results in US20040091992A1.

The target of this experiment is Myc tagged Cdc42HsV12 (constitutively active, expressed in microinjected cells) (UniProt P60953). Description: cell-based or functional assay.
Chain of Myc tagged Cdc42HsV12 (constitutively active, expressed in microinjected cells) (P60953 other isoform, or with tags, fused parts or gaps): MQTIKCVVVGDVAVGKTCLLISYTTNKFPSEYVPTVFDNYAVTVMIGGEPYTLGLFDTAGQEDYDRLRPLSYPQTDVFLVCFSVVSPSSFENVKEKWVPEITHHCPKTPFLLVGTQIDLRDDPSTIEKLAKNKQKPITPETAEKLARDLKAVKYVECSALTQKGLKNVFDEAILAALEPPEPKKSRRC

“HA tagged PAK4 (wild type, expressed in cells from the SRalpha vector) (from UniProt O96013 1-591)” returned a sustained formation of actin enriched filopodia protrusions in co-injected PAE cells (% of the injected cells) of more than 70.
